Results on three molecules are retold here after patent publication US5885797.

To fix the notation:
B1: I-mfb (protein)
chain: MSQVSGQCPSRCDAPHGVPSAALDPAQTMSLLPGLEVARSTHPVEASSEEGFPEEAAPSMPHDSGLRAQQALNSIDLDVPTEAVTCQPQGNPQGCTPLLPNGSSHDHLSEPGSAGHAGNGALGGSKAHRKLQTHPSLGSQAGRKSRGSARSASQVPLQAQEGKAPAVRIHRQTASPTCCLRNAQLSGTALRSLRLESQGHRELNNKTLSQSNNKKPGVAAHAAIIPALTRPKQNCHDPSLLPGTHGVGKEF
B2: I-mfa (protein)
chain: MSQVSGQCPSRCDAPHGVPSAALDPAQTMSLLPGLEVARSTHPVEASSEEGFPEEAAPSMPHDSGLRAQQALNSIDLDVPTEAVTCQPQGNPQGCTPLLPNGSSHDHLSEPGSAGHAGNGALGGSKAHRKLQTHPSLGSQAGRKSRGSARSASQVPLQAQEDCCVHCILSCLFCEFLTLCNILLDCATCGSCSSEDSCLCCCCCGSGECADCDLPCDLDCGIVDACCESADCLEICMECCGLCFSS
B3: I-mfc (protein)
chain: MSQVSGQCPSRCDAPHGVPSAALDPAQTMSLLPGLEVARSTHPVEASSEEGFPEEAAPSMPHDSGLRAQQALNSIDLDVPTEAVTCQPQGNPQGCTPLLPNGSSHDHLSEPGSAGHAGNGALGGSKAHRKLQTHPPQPPNRSAFRRVAWSPPRVTRNTASRAW

The target of this assay is E12.
For the molecule B1, the Relative CAT Activity (%), p4R-TK-CAT, NIH3T3 turned out to be 98.7%.
Take B2: the Relative CAT Activity (%), p4R-TK-CAT, NIH3T3 is 76.3%.
The molecule B3 displayed a Relative CAT Activity (%), p4R-TK-CAT, NIH3T3 of 93.8%.
